Source: paper PMC11843895, “Single-Molecule Nanopore Sequencing of the CpG Island from the Promoter of O6-Methylguanine-DNA Methyltransferase Provides Insights into the Mechanism of De Novo Methylation of G/C-Rich Regions”

How the values were obtained:
Dnmt3a-CD [1] = target: T1, Dnmt3a-CD (UniProt O88508 608-908); test: BLI; 100 uM AdoHcy; BLI: 20 mM HEPES-NaOH pH 7.5, 100 mM KCl, 1 mM EDTA, 0.2 mM DTT, 100 uM AdoHcy, 5% glycerol, 0.02% Tween-20, 0.5 mg/mL BSA, 25 C; inhibition: buffer A (20 mM HEPES-NaOH pH 7.5, 100 mM KCl, 1 mM EDTA, 1 mM DTT) with 25 uM AdoMet, 37 C; FP: buffer A; conditions: protein: recombinant, tags: N-terminal 6xHis, chain copies: 2
T1 sequence (O88508 608-908): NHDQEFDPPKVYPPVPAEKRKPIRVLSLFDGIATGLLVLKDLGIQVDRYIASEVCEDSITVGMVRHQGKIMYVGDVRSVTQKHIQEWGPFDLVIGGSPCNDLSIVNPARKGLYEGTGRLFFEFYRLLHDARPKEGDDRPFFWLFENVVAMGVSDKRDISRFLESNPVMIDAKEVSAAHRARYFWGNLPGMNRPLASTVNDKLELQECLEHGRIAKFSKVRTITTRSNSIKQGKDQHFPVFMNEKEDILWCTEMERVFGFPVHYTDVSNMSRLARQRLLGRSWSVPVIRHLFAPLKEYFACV

Dnmt3a-CD [2] = target: T1, Dnmt3a-CD; test: competition (inhibition of methylation); 300 nM MGMT-ds1-f substrate, 2 uM enzyme, 25 uM AdoMet; BLI: 20 mM HEPES-NaOH pH 7.5, 100 mM KCl, 1 mM EDTA, 0.2 mM DTT, 100 uM AdoHcy, 5% glycerol, 0.02% Tween-20, 0.5 mg/mL BSA, 25 C; inhibition: buffer A (20 mM HEPES-NaOH pH 7.5, 100 mM KCl, 1 mM EDTA, 1 mM DTT) with 25 uM AdoMet, 37 C; FP: buffer A; conditions: protein: recombinant, tags: N-terminal 6xHis, chain copies: 2

## CTCCGCCCCCGCGCGCCCCGGCCC (ssDNA) [MGMT-C-bio]
Dnmt3a-CD [1]; label: 5' biotin
  Kd: 211 ± 21 nM

B1: MGMT-ds2-bio (dsDNA)
DNA 1: CTCCGCCCCCGCGCGCCCCGGCCC
DNA 2: GGGCCGGGGCGCGCGGGGGCGGAG
Dnmt3a-CD [1]; label: 5' biotin on strand 1 (C-rich), blunt
  Kd: 15 ± 0.5 nM

## GGGCCGGGGCGCGCGGGGGCGGAG (structured_DNA) [MGMT-G4]
Dnmt3a-CD [2]; G4, mixed hybrid (CD)
  IC50: 610 ± 30 nM

B2: MGMT-ds1-bio (dsDNA)
DNA 1: GGTCCTGCAGGCGCCCTCACTT
DNA 2: AAGTGAGGGCGCCTGCAGGACC
Dnmt3a-CD [1]; label: 5' biotin on strand 1, blunt
  Kd: 65 ± 2 nM

## GGGCCGGGGCGCGCGGGGGCGGAG (structured_DNA) [MGMT-G4-bio]
Dnmt3a-CD [1]; label: 5' biotin, G4, mixed hybrid (CD of unlabeled MGMT-G4)
  Kd: 14 ± 0.4 nM

## CTGAATACTACTTCCTACCCCTTACCTGAT (ssDNA) [non-specific control (no CpG)]
Dnmt3a-CD [2]
  IC50: 2400 ± 700 nM

## GTGCCGGAGCGCGCGGAGGCGGAG (ssDNA) [MGMT-G4-mut]
Dnmt3a-CD [2]; no G4 by CD
  IC50: 590 ± 90 nM
